# B1: His-tagged recombinant human PANK3 protein (residues Pro12 to Asn368) (enzyme, UniProt Q9H999 12-368, looked up)
# chain: PWFGMDIGGTLVKLSYFEPIDITAEEEQEEVESLKSIRKYLTSNVAYGSTGIRDVHLELKDLTLFGRRGNLHFIRFPTQDLPTFIQMGRDKNFSTLQTVLCATGGGAYKFEKDFRTIGNLHLHKLDELDCLVKGLLYIDSVSFNGQAECYYFANASEPERCQKMPFNLDDPYPLLVVNIGSGVSILAVHSKDNYKRVTGTSLGGGTFLGLCSLLTGCESFEEALEMASKGDSTQADKLVRDIYGGDYERFGLPGWAVASSFGNMIYKEKRESVSKEDLARATLVTITNNIGSVARMCAVNEKINRVVFVGNFLRVNTLSMKLLAYALDYWSKGQLKALFLEHEGYFGAVGALLGLPN
# notes: Pantothenate kinase 3 (PANK3), human, residues Pro12 to Asn368, from a pET28a plasmid bought from Addgene (25518); also called His-PANK3; recombinant PANK3; source: E. coli BL21 (DE3) and E. coli Rosetta2 (DE3), purified (Ni-NTA, size-exclusion chromatography); not shown: His6, N-terminal, kept
# Target: the molecule itself
# Assay: SEC; Ni-NTA eluate of His-PANK3 further subjected to size-exclusion gel chromatography; all purification steps at 4 °C
protein,measurement,value
B1,stoichiometry N,2
